In publication PMC12806343:

Experiments:
[1] = molecular target: membrane-bound PD-L1 on MDA-MB-231 cells, PNGase F treated (UniProt Q9NZQ7); assay: cell retention assay; conditions: 5' amine (NH2), BLI: 1x PBS pH 7.4, aptamers 3-12 uM, 300 s association, 600 s dissociation, temperature not stated, EMSA: TBE-PAGE, binding buffer composition not given
[2] = molecular target: membrane-bound PD-L1 on MDA-MB-231 cells (Homo sapiens?) (UniProt Q9NZQ7); assay: cell retention assay; conditions: aptamer on slide, 5' amine (NH2), BLI: 1x PBS pH 7.4, aptamers 3-12 uM, 300 s association, 600 s dissociation, temperature not stated, EMSA: TBE-PAGE, binding buffer composition not given
Chain of membrane-bound PD-L1 on MDA-MB-231 cells (Homo sapiens?) (Q9NZQ7 19-290): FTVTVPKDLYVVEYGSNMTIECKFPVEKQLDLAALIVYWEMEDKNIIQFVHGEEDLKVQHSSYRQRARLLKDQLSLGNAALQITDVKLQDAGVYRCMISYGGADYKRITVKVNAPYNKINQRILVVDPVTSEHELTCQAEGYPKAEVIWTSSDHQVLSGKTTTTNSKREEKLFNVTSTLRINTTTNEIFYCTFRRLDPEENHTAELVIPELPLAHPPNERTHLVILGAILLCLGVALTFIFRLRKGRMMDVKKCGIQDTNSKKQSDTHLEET

Chain of membrane-bound PD-L1 on MDA-MB-231 cells, PNGase F treated (Q9NZQ7 19-290): as above

Sequence “ATAGTCCCTGGCGTGCTTGGTCGGCAGAGCAGGTACGGTGTCA [Apt45]” has a binding signal (% cells retained) [1] of 46 and a binding signal (% cells retained) ([2]; negligible adhesion) of 5.9.
Work on “GTACCTGCTCTCCGCGCGAAGCACGCCAGGGACT [Tr-Apt13]” yielded a binding signal (% cells retained) [2] of 86.8.
For “TGACACCGTACCTGCTCTCCGCGCGAAGCACGCCAGGGACTAT [Apt13]”, the binding signal (% cells retained) ([2]; comparison with Apt45) was 72.9 and the binding signal (% cells retained) ([2]; comparison with Tr-Apt13) was 62.8.
